Source: patent US20210054097A1 (Novo Nordisk, published 2021)
Positions count from the first letter of the chain named. Ends that are not written are not given here.

T1: FX activation peptide 12-mer PFDLLDFNQTQP (human)
T1 peptide: PFDLLDFNQTQP-biotin

T2: FX activation peptide 12-mer DPTENPFDLLDF (human)
T2 peptide: DPTENPFDLLDF-biotin

B1: Nb 729C08 (VHH)
VHH: EVQLVESGGGVVQPGGSLRLSCAASGFTFSDYAMSWVRQAPGKGLEWVSGITGGGRTYYADSVKGRFTISRDNSKNTLYLQMNSLRPEDTALYYCAAAILTRTRRTYDYWGQGTLVTVSS
notes: monovalent Nanobody; also called Nb 729008; not shown: C-terminal FLAG3 and HIS6 tag
B2: Nb 729A04 (VHH)
VHH: EVQLVESGGGVVQPGGSLRLSCAASGFTFSDYAMSWVRQAPGKGLEWVSGITSGGGRTYYADSVKGRFTISRDNSKNTLYLQMNSLRPEDTALYYCAAVRTLGLRGSYDYWGQGTLVTVSS
notes: monovalent Nanobody; not shown: C-terminal FLAG3 and HIS6 tag
B3: Nb 730C03 (VHH)
VHH: B2 VHH with A23V, G55S, L79V, V99A, R100I, T101L, L102R, L104Y, G106K, S107T
notes: monovalent Nanobody; also called Nb 730003; not shown: C-terminal FLAG3 and HIS6 tag
B4: Nb 501A02 (VHH)
VHH: EVQLVESGGGLVQPGGSLRLSCAASGFTFSNYEMSWVRQAPGKGLEWVSDIGSGGGVSTYYADSVKGRFTISRDNAKNTLYLQMNSLKPEDTAMYYCARGWTYGSDGMDYWGKGTLVTVSS
notes: monovalent control Nanobody; also called control Nanobody; not shown: C-terminal FLAG3 and HIS6 tag
B5: Nb 701B09 (VHH)
VHH: EVQLVESGGGVVQPGGSLRLSCAASGRTFSTYAMGWFRQAPGKEREFVAAISWSGSRTYYADSVKGRFTISRDNSKNTVYLQMNSLRPEDTALYYCAADATPANGELDYWGQGTLVTVSS
notes: monovalent Nanobody; also called Nb 701609; not shown: C-terminal FLAG3 and HIS6 tag
B6: Nb 702C12 (VHH)
VHH: EVQLVESGGGVVQPGGSLRLSCVASGRTFSRYAMGWFRQAPGKEREFVAAISRRGGSTNYADSVKGRFTISRDNSKNTVYLQMNSLRPEDTALYYCAADYSSGDGYLDYWGQGTLVTVSS
notes: as for B2

Tests used:
[1] = target: T1, FX activation peptide 12-mer …; test: peptide ELISA
Outline: (§1)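 Nanobodies (FLAG-tagged) or IgG antibodies, 2 μg/mL, incubated 1 h on C-terminally biotinylated peptide captured via streptavidin, washing buffer pH 8.60 containing CaCl₂ and Tween 20. Read-out: HRP-conjugated secondary antibody with TMB colour development.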

[2] = target: T2, FX activation peptide 12-mer …; test: peptide ELISA
Outline: as §1

Row | Binder | ELISA signal relative to background [1] | ELISA signal relative to background [2] | binding result [2] | binding result [1]
1 | B1 | 1.18 |  |  | 
2 | B2 |  | 4.03 |  | 
3 | B3 | 1.23 |  |  | 
4 | B4 | 0.79 | 0.88 | no binding (tested: 2 µg/mL) | no binding (tested: 2 µg/mL)
5 | B5 | 3.48 | 2.87 |  | 
6 | B6 | 4.95 | 4.16 |  | 
